Source: doi:10.1101/2021.03.22.436490

Experiments:
[1] = biological target: Vibrio cholerae Chromosome 2 ParA (ParA2vc) (Vibrio cholerae); assay: negative-stain EM
[2] = biological target: Vibrio cholerae Chromosome 2 ParA (ParA2vc) (Vibrio cholerae); assay: crystal structure
[3] = biological target: Vibrio cholerae Chromosome 2 ParA (ParA2vc) (Vibrio cholerae); assay: crystal structure; remark: listed apart in the source

Measured: stoichiometry N

Vibrio cholerae Chromosome 2 ParA (ParA2vc) (natural protein)
2: all assays above
